Assay results published in the nanobody polyreactivity screen of Harvey et al. (2022).

test: yeast display, Sf9 membrane polyspecificity reagent, FACS + sequencing; frameworks hold sequencing errors
Method in brief: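 Genes from sorted yeast were amplified by colony PCR, read by MiSeq 2 × 250 sequencing and filtered on CDR length. These cells carried a synthetic nanobody library in Saccharomyces cerevisiae BJ5465 and were sorted by FACS into low and high (top ~1%) gates on anti-HA and streptavidin fluorescence. Polyreactivity is labelled according to the gate of origin.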

Sequence	polyreactivity (PSR sort gate)
QVQLVESGGGLVQAGGTLRLSCAASGSTFRYYAMGWYRQAPGKERELVATITSDGSTNYADSVKGRFTFSRDNAKNTVYLQLNSLKPEDTAVYYCNARCRRYKSSNSWGQGTQVTVSS	high polyreactivity
HVQLVESGGGLVQAGGSLRIICAASVRIFYLYAMGWYRRAPGKERELVATINSGGSTKYADSVKGRFTISRDNAKNSVYLQRNSLKPEDTAVYYCNAKRWKDYYPYQSWKYGYWGQGTQVTVSS	high polyreactivity
QVQLVESGGGLVQAGGSLRLSCAASGSTFSVNAMGWYRQAPGKEREFVARITWRGGSTYYADSVKRRFTISRDNAKNTVYLQMNSLKPEDTAVYYCAATLRYWWRSSYEDYYWGQGTQVTVSS	low polyreactivity
QVQLGESGGGLVQAGGSLRLTCAAYGRIYGGNAMGWYRQATGKEWELDAGISRRGGSTYYADSVKGRFTISRDNEKNTVYLQMNRLKPEDTAVYYCYAYYRYSVFAEKYDYWGQGTHVTVSS	high polyreactivity
QVQLVESGGGLVQAGGSLRLSCAASGSTFDDNAMGWYRQAPGKERELVAAITYRGTRTYYADSVKGRFTISRDNAKNTVYLQMNSLKPEDTAVYYCAADSESVGYEYWGQGTQVTVSS	high polyreactivity
QVQLQESGGGLVQAGGSLLLSCAASGSISGPHVMGWYRQAPGKEREFVAAINVGANTYYADNVKGRFTISRDNAKNTVYLQMNSLKPEDTAVYYCAAVYYGDIGHEYWGQGTQVTVSC	low polyreactivity
QVQLVESGGGLVQAGGSLRLSCAASGRIFGSYVMGWYRQAPGKERELVAAITDGGTTFYADSVKGRFTISRDNAKNTVYLPMNSLKPEDTAVYYCAARQAGYSGRKLYYWGQGTQVTVSS	low polyreactivity
QVQLVESGGGLVQAGGSLRLSCAASGIIFSSNVMGWYRQAPGKERELVAAISRSGDRTYYADSVKGRFTISRDNAKNTVYLQMNSLKPEDTAVYYCAARERVNVVSNGYWGQGTQVTVSS	high polyreactivity
QVQLVESGGGLVQAGGSLRLSCAASGSIYGYTMGWYRQAPGKERELVAAINRRADRTYYADSVKGRFTISRDNAKNTVYLQMNSLKPEDTAVYYCNKGGWYTLGYCGQGTQVTVSS	high polyreactivity
QVQLEESGGGLVQAGGSLRLSCAASGRIFKSYTMGGYRQAPGKERELVAAITKSAASTYYADSVKGRFTISRDNAKNTVYLQMNSLKPVDTAVYYCAASRIGGGKVKFGYWGQGTQVTVSS	high polyreactivity
QVQLVESGGGLVQAGGSLRLSCASSGLIFQYYVKGWYRQAPGKERELVAAISARGGGTYYADSVKGRFTISRDNAKNTVYLQMISLKPEDTAVYYCAADPVYAGPGYDYWGQGTQVTVSS	high polyreactivity
QVQLVESGGGLVQAGGSLRLSCAASGRTFDYNAMGWYRQAPGKERELVADISNGGTTSYADSVKGRFTISRDNAKNTVYLQMNSLKPEDTAVYYCATLYDWSSFANSYWYFGWEEDYWGQGTQVTVSS	low polyreactivity
QVQLVESGGGLVQAGGSLRISSAASGRTFATYVMGWYRQAPGKERELVASITRGGSTNYADSVKGRFTISRDNAKNTVYLQMNSLKPEDTAVYYCAASFLATYDYWGLGTQVTVSS	low polyreactivity
QVQLQESSGGLVQAGGSLRMSCAASGTIFHFHIMGWYRQAPGKEREFVAAISYGTSTYYADSVKGRFTISRDNAKNTVYLQMNSQKPEDTGVYYCAVYDYLEVYCWYWGQGTQVTVSS	low polyreactivity
QVQLVESGGGLVQAGGSLRLSCAASGRIFFYYAMGWYRQAPGKERELVATITASGDSTYYADSVKGRFTISRDNAKNTVYLQMNSLKPEDTAVYYCAADDGDYYEVDYWGQGTQVTVSS	low polyreactivity
QVQLVESGGGLVQAGGSLRLSCAASGRTFAANTMGWYRQAPGKERELVAAISSSGGSTSYADSVKGRFTISRDNAKNTVYLQMNSLKPEDTAVYYCNTLLRRDFNYWGQGTQVTVSS	high polyreactivity
QVQLVESGGGLVHAGGSLRLSCAASGRTFNRYAMGWYRQAPGKERELVAAISGGGSSTSYADSVKGRFTISRDNAKNTVYLQMNSLKPEDTAVYYCAAKYGGLRYYNMYYWGQGTQVTVSS	low polyreactivity
QVQLVESGGGLVQAGGSLRISCAASGRIFGFNAMGWYRQAPGKERELVAAISRTSSSTYYADSVKGRFTISRDNAKNTVYLQMNSLKPEDTAVYYCATRYFTHGKYDYWGQGTQVTVSS	high polyreactivity
QVQLVESGGRLVQAGGSLRLSCAASGSIFYYNVMGWYRQAPGKERELVAAIDIDGSTYYADSVKGRFTISRDNAKNTVYLQMNSLKPEDTAVYYCAADVHTPALYTYAAGDYWGQGTQVTVSS	low polyreactivity
QVQLVESGGGLVQAGGSLRLSCAASVRISESNDMGWYRQAPGKERELVAAISSSGGSTYYADSVKGRFTISRENAKNTVYLQMNSLKPEDTAVYYCNAVYYRTVLKIGVYEYDFWGQGTQVTVSW	low polyreactivity
QVQLVESGGGLVQAGGSLRLSCAASGRIFTIYAMGWYRQAPGKERELVATISRRGGSTYYADSVKGRFTISRDNAKNTVYLQMNSLKPEDTAVYYCAADSVITWWAYDYWGQGTQVTVSS	high polyreactivity
QVQLVESGGGLVQAGGSLRLSCAASGSTFLTNVMGWYRPAPGQERELVAAITIGGSTNYADSVKGRFTISRDNAKNTVYLQMNILKPEDTAVYYCATDIRRKPRYVDYEYWGQGTQVTVSS	low polyreactivity

Sequence	polyreactivity (PSR sort gate)
QVQLVESGGGLDQAGGSLRLSWAASAFIFGLYAMGWYRQAPGKERELVAAITSVESTKYADSVKGRFTISRDHAKNTVYLQMNSLKPEDTAVYYCATDWSLEDDYWGQGTQVTVSS	low polyreactivity
QVQLQEGGGGLVQAGGSLRLSCAASGYIFNGDWMGWYRQAPGKERELVATINYGATTNYADSVKGRFTISRDNAKNTVYLQMNSLKPEDTAVYYCAVGGHGAQLYVYWGQGTQVTVSN	high polyreactivity
QVQLVESGGGLVQAGGSLRLSCAASGSTFIPNTMGWYRQAPGKERELVAAISRRGGSTNYADSVKGRFTISRDNAKNTVYLQMNSLKPEDTAVYYCAAVSPRRYRYDYWGQGTQVTVSS	high polyreactivity
QVQLVASGGGLVQAGGSLRLSCAASGFIVSVYAMGWYRQAPGKERELVAVISTSGGRTYYADSVKGRFTISRDNAQNTVYLQMNSLKPEDTAVYYCAADGFQYTLGNYYWGQGTHVTVSS	high polyreactivity
QVQLVESGRGLVQAGGSLRLSCAASGSIFAFYAMGWYRPAAGKERELVAVITRSGGSTYYADSVKGRFTISRDNAKITVYLQMNSLKPEDTAVFYCAARTGYGYTRYEYWGQGTQVTVSS	high polyreactivity
QVQLVESGGGLVQAGGSLRLSCAASGRIISYYAMRWYRQAPGKERELVAAITSAGGTNYADSVKARFTISRDNAKNTVYLQMNSLKPEDTAVYYCAADLYDWPLAWWEYFYWGQGTQVTVSS	low polyreactivity
QVQLVESCGGLVQAGGSLRLSCAASGRIFGIYSMGWYRQAPGKEREVVARITKSGGSTYYADSVKGRFTISRDNAKNTVYLQMNSLKPEDTAVYYCAASYYGKRDRAGPYYSFDYWGQGTQVTVSS	high polyreactivity
QVQLVESGGGLVQAGGSLRLSCAASGSIFNYYGMGWYRQAPGKERELVAAISVRGGRTYYADSVKGRFTISRDNAKNTVYLQMNSLKPEDTAVYYCAADGGYSLGYYDDELDYWGQGTQVTVSS	low polyreactivity
QVQLVESGGGLVQAGGSLRLSCAASGFTFHNNVMGWYRQAPGKERELVATISKSGGSTYYADSVKGRFTISRDNAKNTVYLQMNSLKPEDTAVYYCAAETPTHDEWGQGTQVTVSS	high polyreactivity
QVQIEESGGGLVQAGGSLRLSCAASGRTFLHKDMGWYRPAPGKERELVAAINVSDGSTYYADSVKGRFTISRDNAKNTVYLQMNSLKPEDTAVYYCAKASYIIFRFEYRSGYDYWGQGTQVTVSS	low polyreactivity
QVQLVESGGGLVQAGGSLRLSCAASGFISDYYAMGWDRQAPGKERELVADISSGGSTYYADSVKGRCTISRDNAKNTVYLQMNSLKPEDTAVYYCNAGDYFVRFVYYWDDERYDYWGQGTQVTVSS	low polyreactivity
QVQLVESGGGLVQAGGSLRLSCAASGRIFYWNAMGCYRQAPGKERELVADISTGGSTYYADSVKGRFTISRDNAKNTVYLQMNRLKPEDTAVYYCAVVYVSLWPSATDWSGFGYWGQGTQVTVSS	low polyreactivity
QVQLVESGGGLVQAGGSLRLSCAASGSIFGFYAMGWYRQAPGKERELVASITISGGSTYYADSVKGRFTISRDNAKNTVYLQMNSLKPEDTAVYYCAARRYWDYNYWGQGTQVTVSS	low polyreactivity
QVQLVESGGGLVQAGGSLRLSCAASGFTFERYTMGWYRQAPGKERELVATISRRSGRTSYADSVKGRFTISRDNAKNTVYLQMNSLKPEDTAVYYCAVDDAYPDRYDYWGQGTQVTVSS	high polyreactivity
QVQLVESGGGLVQAGGSLRLSCAASGRIFRVYAMGWYRQAPGKERELVAAISSSGSSTYYADSVKGRFTISRDNAKYTVYLQMNSLKPEDTAVYYCAARGYDISSRYDYWGQGTQVTVSS	high polyreactivity
QVQLEESGGGLVQAGGSLRLSCAASGSTFWYYAMGWYRPAPGKERELVAALSRSTGSTYYADSVKGRFTISRDNAKNTVYLQMNSLKPEDTAVYYCAADSYDWWQYTTSVHFDYYWGQGTQVTVSS	low polyreactivity
QVQLVESGGGLVQAGGSLRLSCAACGRIFVYYVMGWYRQAPGKERELVAAISNSGTSTYYADSLKGRFTISRDNAKNTVYLQMNSLKPEDTAVYYCNTVGQRWLSDDDYWGQGTQVTVSS	low polyreactivity
QVHLVESGGGLVQAGGSLRLSCAASGRIFSVYAMGWYRQAPGKERELVAVITTSGGSTYYADSVKGRFTISRGNAKNTVYLQMNSLKPEDTAVYYCNAEPWSYAIGSYEYWGQGTQVTVSS	high polyreactivity
QVQLVESGGGLVQAGGSLRLSCAASGFIFRYYTMGWYRQAPGKERELVATITSGGSTYYADSVKGRFTISRDNAKNTVYLQMNSLKPEDTAVYYCAKVRDVLWRFNYWGQGTQVTVSS	high polyreactivity
QVHLVESGGGLVQAGGSLRLSFAASGRISRIYTMVWYRPAPGKERELVAAITSRGGSTYYADSLKGRFTISRDNAKNTVYFQMNSLNPEDTAVYYCAAGTFWWGYRSKGDEYDYWGQGTKVTVSS	high polyreactivity
QVQLVESGGGLVQAGGSLRLSCAASGSIFRGNAMGWYRQAPGKERELVAAISWSGASTYYADSVKGRFTISRDNAKNTVYLQMNSLKPEDTAVYYCAAVQWTGYPFDYWGQGTQVTVSS	high polyreactivity
